In patent US20110014213A1 (JURIDICAL FDN THE CHEMO SERO THERAP RES INS, published 2011):

Key:
[1] = biological target: T1, human α9 integrin (human, UniProt Q13797 30-1035); assay: cell-based or functional assay
T1 sequence: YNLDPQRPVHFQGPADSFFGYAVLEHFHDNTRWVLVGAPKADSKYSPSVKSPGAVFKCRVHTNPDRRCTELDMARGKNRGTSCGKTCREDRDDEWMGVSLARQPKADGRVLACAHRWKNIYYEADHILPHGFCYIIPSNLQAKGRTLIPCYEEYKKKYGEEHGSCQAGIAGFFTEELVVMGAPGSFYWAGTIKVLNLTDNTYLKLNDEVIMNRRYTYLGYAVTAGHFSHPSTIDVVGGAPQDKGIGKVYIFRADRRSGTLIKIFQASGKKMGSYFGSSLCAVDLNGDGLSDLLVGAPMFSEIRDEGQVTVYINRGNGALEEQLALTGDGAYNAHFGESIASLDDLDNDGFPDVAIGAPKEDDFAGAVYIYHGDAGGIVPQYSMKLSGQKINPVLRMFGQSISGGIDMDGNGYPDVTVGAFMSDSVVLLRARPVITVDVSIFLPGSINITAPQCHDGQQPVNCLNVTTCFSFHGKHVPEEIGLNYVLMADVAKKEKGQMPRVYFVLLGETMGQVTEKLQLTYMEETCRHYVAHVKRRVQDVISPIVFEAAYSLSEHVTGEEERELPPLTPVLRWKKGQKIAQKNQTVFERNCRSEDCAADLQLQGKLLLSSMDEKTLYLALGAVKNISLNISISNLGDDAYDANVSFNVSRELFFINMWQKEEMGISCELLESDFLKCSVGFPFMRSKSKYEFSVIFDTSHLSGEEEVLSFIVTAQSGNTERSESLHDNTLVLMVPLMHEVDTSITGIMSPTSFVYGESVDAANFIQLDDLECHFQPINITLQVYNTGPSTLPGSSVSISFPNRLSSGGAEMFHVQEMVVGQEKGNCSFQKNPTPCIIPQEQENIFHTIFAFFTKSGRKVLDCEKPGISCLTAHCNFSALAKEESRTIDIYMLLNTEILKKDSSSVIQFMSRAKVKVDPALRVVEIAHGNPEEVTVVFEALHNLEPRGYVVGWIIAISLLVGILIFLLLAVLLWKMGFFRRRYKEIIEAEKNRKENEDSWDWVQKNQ

[2] = biological target: T2, mouse α9 integrin (mouse, UniProt B8JK39 29-1036); assay: cell-based or functional assay
T2 chain: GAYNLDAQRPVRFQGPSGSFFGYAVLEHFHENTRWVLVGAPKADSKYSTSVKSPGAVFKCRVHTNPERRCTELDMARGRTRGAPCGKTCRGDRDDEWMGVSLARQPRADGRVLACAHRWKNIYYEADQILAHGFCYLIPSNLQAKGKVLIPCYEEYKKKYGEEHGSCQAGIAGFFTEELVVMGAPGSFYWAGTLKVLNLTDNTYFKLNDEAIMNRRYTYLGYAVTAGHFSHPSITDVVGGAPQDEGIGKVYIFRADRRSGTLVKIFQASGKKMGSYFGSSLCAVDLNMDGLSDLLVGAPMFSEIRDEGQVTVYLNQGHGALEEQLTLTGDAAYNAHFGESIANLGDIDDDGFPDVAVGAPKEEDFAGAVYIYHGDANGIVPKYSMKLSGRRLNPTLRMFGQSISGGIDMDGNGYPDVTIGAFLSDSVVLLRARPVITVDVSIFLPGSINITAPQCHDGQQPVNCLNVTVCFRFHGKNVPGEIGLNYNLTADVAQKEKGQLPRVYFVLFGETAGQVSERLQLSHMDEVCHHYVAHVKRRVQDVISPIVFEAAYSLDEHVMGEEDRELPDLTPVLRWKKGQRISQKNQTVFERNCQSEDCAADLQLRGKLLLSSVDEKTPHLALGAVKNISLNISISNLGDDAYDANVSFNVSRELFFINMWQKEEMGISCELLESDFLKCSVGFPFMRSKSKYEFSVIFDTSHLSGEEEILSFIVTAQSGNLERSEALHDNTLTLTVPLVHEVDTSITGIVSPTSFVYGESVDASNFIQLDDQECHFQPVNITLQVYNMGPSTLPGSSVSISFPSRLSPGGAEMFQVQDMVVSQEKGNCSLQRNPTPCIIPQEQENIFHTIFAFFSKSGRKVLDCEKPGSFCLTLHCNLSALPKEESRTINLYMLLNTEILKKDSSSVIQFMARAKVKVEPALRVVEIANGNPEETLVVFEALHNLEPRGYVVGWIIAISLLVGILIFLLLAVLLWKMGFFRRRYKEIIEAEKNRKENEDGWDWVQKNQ

IC50 of inhibition of α9-dependent cell adhesion [1]: 48.5 µg/mL
IC50 of inhibition of α9-dependent cell adhesion [2]: 0.34 µg/mL
B1: MA9-413 scFv-Fc (Fc fusion)
scFv: EVQLVESGGGVVRPGGSLRLSCAASGFAFGDYGMSWVRQAPGKGLEWVSGINWNGGSTGYADSVKGRFTTSRDNAKNSLYLQMNSLRAEDTALYYCARDENYDILTGYYYYGMDVWGQGTTVTVSSGGGGSGGGGSGGGGSQSVVTQPPSVSAAPGQKVTISCSGSSSNIGNNYVSWYQQLPGTAPKLLIYDNNKRPSGIPDRFSASKSGTSATLGITGLQTGDEADYYCGTWDSSLTVWAFGGGTKLTVLG
notes: Divalent scFv-Fc with mouse IgG1 Fc, expressed in CHO-DG44; also called ANM-2; not shown: Fc region of mouse IgG1 and its junction to the scFv
